T1: Lsb1, P53281
T1 sequence (P53281 45-122, looked up): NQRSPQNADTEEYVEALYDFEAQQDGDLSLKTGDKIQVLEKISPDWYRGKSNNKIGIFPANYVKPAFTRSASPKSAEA

T2: Fus1, P11710
T2 sequence (P11710 432-512, looked up): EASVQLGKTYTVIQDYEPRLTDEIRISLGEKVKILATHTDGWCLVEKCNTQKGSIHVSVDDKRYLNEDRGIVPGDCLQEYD

T3: Bzz1-2, P38822
T3 sequence (P38822 568-633, looked up): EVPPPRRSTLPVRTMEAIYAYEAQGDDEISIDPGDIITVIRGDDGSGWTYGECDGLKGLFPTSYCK

T4: Sla1-3, P32790
T4 sequence (P32790 344-424, looked up): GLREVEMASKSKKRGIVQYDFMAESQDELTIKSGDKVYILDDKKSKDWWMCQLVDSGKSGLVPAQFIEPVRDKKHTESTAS

T5: Boi2, P39969
T5 sequence (P39969 32-116, looked up): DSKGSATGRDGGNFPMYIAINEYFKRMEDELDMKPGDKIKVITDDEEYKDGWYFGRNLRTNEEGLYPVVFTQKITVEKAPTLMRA

T6: Myo5, Q04439
T6 sequence (Q04439 1072-1160, looked up): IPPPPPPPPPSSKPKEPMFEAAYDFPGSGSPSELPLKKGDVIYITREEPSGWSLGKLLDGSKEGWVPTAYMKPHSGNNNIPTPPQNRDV

T7: Sla1-2, P32790
T7 sequence (P32790 60-140, looked up): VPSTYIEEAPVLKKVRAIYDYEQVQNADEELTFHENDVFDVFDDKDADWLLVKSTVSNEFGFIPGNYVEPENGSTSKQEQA

T8: Hof1, Q05080
T8 sequence (Q05080 590-669, looked up): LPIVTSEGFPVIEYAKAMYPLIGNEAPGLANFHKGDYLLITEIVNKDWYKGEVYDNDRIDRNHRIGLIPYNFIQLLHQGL

T9: Cyk3, Q07533
T9 sequence (Q07533 1-83, looked up): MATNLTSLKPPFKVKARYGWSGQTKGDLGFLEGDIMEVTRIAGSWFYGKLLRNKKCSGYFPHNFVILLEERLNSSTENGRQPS

T10: Abp1, P15891
T10 sequence (P15891 535-592, looked up): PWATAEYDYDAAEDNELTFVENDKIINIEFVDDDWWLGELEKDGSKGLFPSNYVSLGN

T11: Bbc1, P47068
T11 sequence (P47068 1-78, looked up): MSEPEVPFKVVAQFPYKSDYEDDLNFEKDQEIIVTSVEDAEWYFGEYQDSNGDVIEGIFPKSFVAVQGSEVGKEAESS

T12: Cdc25, P04821
T12 sequence (P04821 50-136, looked up): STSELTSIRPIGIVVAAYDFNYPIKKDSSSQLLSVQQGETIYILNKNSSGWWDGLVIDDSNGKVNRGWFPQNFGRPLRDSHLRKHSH

T13: Pin3, Q06449
T13 sequence (Q06449 53-122, looked up): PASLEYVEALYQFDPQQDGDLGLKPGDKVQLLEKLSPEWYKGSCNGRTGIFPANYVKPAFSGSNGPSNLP

T14: Lsb4, P32793
T14 sequence (P32793 402-468, looked up): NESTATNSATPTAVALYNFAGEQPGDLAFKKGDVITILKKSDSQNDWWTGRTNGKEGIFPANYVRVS

T15: Pex13, P80667
T15 sequence (P80667 295-386, looked up): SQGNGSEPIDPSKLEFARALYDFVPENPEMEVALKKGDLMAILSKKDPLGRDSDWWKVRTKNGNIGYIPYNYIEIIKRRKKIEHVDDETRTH

T16: Nbp2, Q12163
T16 sequence (Q12163 103-180, looked up): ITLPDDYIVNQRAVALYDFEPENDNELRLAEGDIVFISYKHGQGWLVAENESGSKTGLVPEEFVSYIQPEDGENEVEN

T17: Lsb3, P43603
T17 sequence (P43603 385-451, looked up): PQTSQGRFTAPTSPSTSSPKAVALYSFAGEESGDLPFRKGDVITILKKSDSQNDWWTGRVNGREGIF

T18: Boi1, P38041
T18 sequence (P38041 1-86, looked up): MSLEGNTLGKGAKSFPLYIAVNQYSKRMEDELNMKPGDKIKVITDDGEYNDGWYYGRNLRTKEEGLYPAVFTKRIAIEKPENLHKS

T19: Bzz1-1, P38822
T19 sequence (P38822 478-572, looked up): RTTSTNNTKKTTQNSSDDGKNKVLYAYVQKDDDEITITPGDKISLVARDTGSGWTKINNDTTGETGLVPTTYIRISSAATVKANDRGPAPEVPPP

T20: Hse1, P38753
T20 sequence (P38753 208-285, looked up): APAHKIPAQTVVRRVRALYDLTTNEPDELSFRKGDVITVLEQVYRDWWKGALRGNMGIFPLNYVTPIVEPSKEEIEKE

T21: Bud14, P27637
T21 sequence (P27637 247-328, looked up): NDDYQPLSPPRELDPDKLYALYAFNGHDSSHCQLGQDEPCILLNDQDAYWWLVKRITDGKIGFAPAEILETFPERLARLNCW


Experiments:
Experiment in all cases: SPOT array
Lsb1, P53281 = target: T1, Lsb1, P53281; details: median of control spots 388
Fus1, P11710 = target: T2, Fus1, P11710; details: median of control spots 1200
Bzz1-2, P38822 = target: T3, Bzz1-2, P38822; details: median of control spots 4538
Myo3, P36006 = details: median of control spots 468
Bem1-2, P29366 = details: median of control spots 4347
Sla1-3, P32790 = target: T4, Sla1-3, P32790; details: median of control spots 5475
Boi2, P39969 = target: T5, Boi2, P39969; details: median of control spots 1161
Myo5, Q04439 = target: T6, Myo5, Q04439; details: median of control spots 471
Sla1-2, P32790 = target: T7, Sla1-2, P32790; details: median of control spots 712
Hof1, Q05080 = target: T8, Hof1, Q05080; details: median of control spots 4086
Cyk3, Q07533 = target: T9, Cyk3, Q07533; details: median of control spots 1451
Abp1, P15891 = target: T10, Abp1, P15891; details: median of control spots 935
Bbc1, P47068 = target: T11, Bbc1, P47068; details: median of control spots 796
Bem1-1, P29366 = details: median of control spots 4282
Rvs167, P39743 = details: median of control spots 2707
Cdc25, P04821 = target: T12, Cdc25, P04821; details: median of control spots 969
Pin3, Q06449 = target: T13, Pin3, Q06449; details: median of control spots 2171
Lsb4, P32793 = target: T14, Lsb4, P32793; details: median of control spots 397
Pex13, P80667 = target: T15, Pex13, P80667; details: median of control spots 1341
Nbp2, Q12163 = target: T16, Nbp2, Q12163; details: median of control spots 357
Lsb3, P43603 = target: T17, Lsb3, P43603; details: median of control spots 406
GST = details: median of control spots 978
Sho1, P40073 = details: median of control spots 1148
Boi1, P38041 = target: T18, Boi1, P38041; details: median of control spots 1162
Bzz1-1, P38822 = target: T19, Bzz1-1, P38822; details: median of control spots 4446
Hse1, P38753 = target: T20, Hse1, P38753; details: median of control spots 1727
Bud14, P27637 = target: T21, Bud14, P27637; details: median of control spots 956

Chain of Rvs167, P39743 (P39743 419-482): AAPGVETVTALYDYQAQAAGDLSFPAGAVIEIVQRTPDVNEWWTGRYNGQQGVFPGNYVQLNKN
Chain of Bem1-1, P29366 (P29366 55-141): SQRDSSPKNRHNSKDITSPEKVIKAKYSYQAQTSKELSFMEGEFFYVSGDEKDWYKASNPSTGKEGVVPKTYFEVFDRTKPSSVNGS
Chain of Bem1-2, P29366 (P29366 139-227): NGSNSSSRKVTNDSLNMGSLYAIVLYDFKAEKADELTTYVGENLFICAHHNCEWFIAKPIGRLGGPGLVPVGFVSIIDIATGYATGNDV
Chain of Sho1, P40073 (P40073 287-367): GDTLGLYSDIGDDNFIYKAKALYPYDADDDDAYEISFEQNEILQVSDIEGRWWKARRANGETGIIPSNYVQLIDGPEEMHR

Binder	SPOT intensity (Lsb1, P53281)	SPOT intensity (Fus1, P11710)	SPOT intensity (Bzz1-2, P38822)	SPOT intensity (Myo3, P36006)	SPOT intensity (Bem1-2, P29366)	SPOT intensity (Sla1-3, P32790)	SPOT intensity (Boi2, P39969)	SPOT intensity (Myo5, Q04439)	SPOT intensity (Sla1-2, P32790)	SPOT intensity (Hof1, Q05080)	SPOT intensity (Cyk3, Q07533)	SPOT intensity (Abp1, P15891)	SPOT intensity (Bbc1, P47068)	SPOT intensity (Bem1-1, P29366)	SPOT intensity (Rvs167, P39743)	SPOT intensity (Cdc25, P04821)	SPOT intensity (Pin3, Q06449)	SPOT intensity (Lsb4, P32793)	SPOT intensity (Pex13, P80667)	SPOT intensity (Nbp2, Q12163)	also measured
YVRRRPRVRLEPLLS	13	19	15	5	15	44	17	1	3	20	4	101	273	0	0	156	2	3	2	16	SPOT intensity (Lsb3, P43603): 0; SPOT intensity (GST): 9; SPOT intensity (Sho1, P40073): 102; SPOT intensity (Boi1, P38041): 13; SPOT intensity (Bzz1-1, P38822): 0; SPOT intensity (Hse1, P38753): 54; SPOT intensity (Bud14, P27637): 26
RTIRKLPLMSLSEYF	15	24	0	3	0	19	0	1	1	20	1	13	3	0	0	6	27	2	12	1	SPOT intensity (Lsb3, P43603): 3; SPOT intensity (GST): 0; SPOT intensity (Sho1, P40073): 6; SPOT intensity (Boi1, P38041): 1; SPOT intensity (Bzz1-1, P38822): 2; SPOT intensity (Hse1, P38753): 2; SPOT intensity (Bud14, P27637): 6
KNPRRQLQIPRQQPS	216	0	2	4	1	3	0	1	0	2	0	92	46	2	2	54	3	8	3	0	SPOT intensity (Lsb3, P43603): 3; SPOT intensity (GST): 4; SPOT intensity (Sho1, P40073): 99; SPOT intensity (Boi1, P38041): 0; SPOT intensity (Bzz1-1, P38822): 2; SPOT intensity (Hse1, P38753): 3; SPOT intensity (Bud14, P27637): 6

More lines, main results first:

SPOT intensity (Lsb1, P53281)	SPOT intensity (Fus1, P11710)	SPOT intensity (Bzz1-2, P38822)	SPOT intensity (Myo3, P36006)	SPOT intensity (Bem1-2, P29366)	SPOT intensity (Sla1-3, P32790)	SPOT intensity (Boi2, P39969)	SPOT intensity (Myo5, Q04439)	SPOT intensity (Sla1-2, P32790)	SPOT intensity (Hof1, Q05080)	SPOT intensity (Cyk3, Q07533)	SPOT intensity (Abp1, P15891)	SPOT intensity (Bbc1, P47068)	SPOT intensity (Bem1-1, P29366)	SPOT intensity (Rvs167, P39743)	SPOT intensity (Cdc25, P04821)	SPOT intensity (Pin3, Q06449)	SPOT intensity (Lsb4, P32793)	SPOT intensity (Pex13, P80667)	SPOT intensity (Nbp2, Q12163)	Binder	also measured
0	53	0	0	1	24	0	0	0	0	4	0	18	0	0	26	4	0	3	0	LRWRHKFFLPAIAAI	SPOT intensity (Lsb3, P43603): 0; SPOT intensity (GST): 0; SPOT intensity (Sho1, P40073): 9; SPOT intensity (Boi1, P38041): 1; SPOT intensity (Bzz1-1, P38822): 1; SPOT intensity (Hse1, P38753): 21; SPOT intensity (Bud14, P27637): 10
0	145	10	6	11	156	2	0	0	15	3	41	51	0	0	50	7	0	7	12	NFKRLLPRDPSEKSS	SPOT intensity (Lsb3, P43603): 0; SPOT intensity (GST): 0; SPOT intensity (Sho1, P40073): 51; SPOT intensity (Boi1, P38041): 4; SPOT intensity (Bzz1-1, P38822): 1; SPOT intensity (Hse1, P38753): 72; SPOT intensity (Bud14, P27637): 12
1	0	0	0	0	11	0	0	0	4	0	5	2	0	0	9	2	0	0	1	NRARYLPQNPDIIAG	SPOT intensity (Lsb3, P43603): 1; SPOT intensity (GST): 0; SPOT intensity (Sho1, P40073): 10; SPOT intensity (Boi1, P38041): 3; SPOT intensity (Bzz1-1, P38822): 0; SPOT intensity (Hse1, P38753): 3; SPOT intensity (Bud14, P27637): 11

From publication PMC2756588
